Assay results as given in PMC6065307, “Structural dynamics of the transaminase active site revealed by the crystal structure of a co-factor free omega-transaminase from Vibrio fluvialis JS17” (Scientific Reports, 2018).

Biological target: the molecule itself
Experiment: SEC-MALS; Superdex 200 HR 10/30 coupled to MALS and refractive index detectors; 20 mM Tris-HCl pH 8.0, 150 mM NaCl; measured mass 103.72 kDa against 52.79 kDa theoretical monomer

B1: ω-transaminase from Vibrio fluvialis JS17 (Vfat), apo (cofactor-free) form (enzyme, UniProt F2XBU9 1-453, looked up)
chain: MNKPQSWEARAETYSLYGFTDMPSLHQRGTVVVTHGEGPYIVDVNGRRYLDANSGLWNMVAGFDHKGLIDAAKAQYERFPGYHAFFGRMSDQTVMLSEKLVEVSPFDSGRVFYTNSGSEANDTMVKMLWFLHAAEGKPQKRKILTRWNAYHGVTAVSASMTGKPYNSVFGLPLPGFVHLTCPHYWRYGEEGETEEQFVARLARELEETIQREGADTIAGFFAEPVMGAGGVIPPAKGYFQAILPILRKYDIPVISDEVICGFGRTGNTWGCVTYDFTPDAIISSKNLTAGFFPMGAVILGPELSKRLETAIEAIEEFPHGFTASGHPVGCAIALKAIDVVMNEGLAENVRRLAPRFEERLKHIAERPNIGEYRGIGFMWALEAVKDKASKTPFDGNLSVSERIANTCTDLGLICRPLGQSVVLCPPFILTEAQMDEMFDKLEKALDKVFAEVA
notes: ω-transaminase (amine:pyruvate transaminase) from Vibrio fluvialis JS17; 'the coding region of Vfat' cloned into pET24ma; theoretical mass with the His-tag 52.79 kDa; Homodimer by MALS and in the crystal; also called apo Vfat; amine:pyruvate transaminase; source: E. coli BL21 (DE3), purified (Ni-NTA, Superdex 200 gel filtration); not shown: His-tag, C-terminal, kept
- stoichiometry N: 2
